Biological target: T1, full length human p53 fused in frame with the B42D activation domain (pJG4-5) (human, UniProt P04637 1-393)
T1 construct: mature; Yeast two hybrid prey
Assay: yeast two hybrid, X-gal colony colour
Source text: To determine whether protein-protein interactions are involved, and which part of Msx1 are involved if any, in the stabilization of p53 leading to apoptosis of cells by Msx1, yeast two hybrid assays were used as previously described (Gyuris et al., Cell 75: 791-803, 1993; Part et al., ibid).
Briefly, to this end, four Msx1 constructs (FIG. 3A top) were made as described in Example 1. DNA fragments encoding full length human HPV-E6 and p53 proteins were isolated by PCR from the cDNA library derived from HeLa cells (Clontech) and cloned into pJG4-5 at unique EcoRI and XhoI sites for in-frame fusion of each cDNA with B42D activation domain. The truncated constructs of Msx1 as shown in FIG. 3A were obtained by PCR using specific set of primers designed for each deletion product and pCB6+/Msx1 as a template. Each amplified Msx1 fragment was then inserted into a pGlida vector (Clontech) using BamHI and XhoI sites to express it as a fusion protein with LexA. Each pGlida and pJG4-5 fusion construct prepared was then introduced into the testing yeast strain EGY48. […] The binding activity between HPV-E6 and Msx1 was also determined quantitatively by the relative expression level of β-galactosidase as described (Rho, S B et al., FEBS Lett 557: 57-63, 2004; Rho, S B et al., PNAS USA 93:10128-33,1996).

binding result: no binding
B1: Msx1 construct lacking homeodomain (1-165) expressed as a fusion protein with LexA (other)
chain: MTSLPLGVKVEDSAFGKPAGGGAGQAPSAAAATAAAMGADEEGAKPKVSPSLLPFSVEALMADHRKPGAKESALAPSEGVQAAGGSAQPLGVPPGSLGAPDAPSSPRPLGHFSVGGLLKLPEDALVKAESPEKPERTPWMQSPRFSPPPARRLSPPACTLRKHKT
notes: Yeast two hybrid bait; not shown: LexA as encoded by the pGlida vector (Clontech)

— patent US20090088402A1 (SUNGKYUNKWAN UNIVERSITY FOUNDATION FOR CORPORATE …, published 2009)
